Results: patent US20240407995A1, “BIOMINERALIZATION MATERIAL FOR TREATING DENTIN HYPERSENSITIVITY AND PROMOTING EPITAXIAL GROWTH OF ENAMEL, AND USE THEREOF” (SHAANXI NORMAL UNIVERSITY, priority 2022, published 2024)

Experiment: Film-forming critical line of lysozyme concentration vs cysteine concentration
Type: physicochemical
Details: FIG. 2
Experimental: In order to study a film-forming critical line between a film-forming protein and cysteine, the inventors prepared different concentrations of film-forming protein solutions and cysteine solutions, and curves were drawn as shown in FIG. 2. […] However, when the protein concentration was 0.2 mg/mL, higher concentration of cysteine was required for film formation.

Q: With lysozyme [Lyz] as the substance, how does the “protein concentration at which a small amount of cysteine could form a film” value read?
A: Its value is “greater than or equal to 0.2 mg/mL”.
